# Results reported in patent US20240277831A1.
# Assays:
# [1] = target: RBD-16GS-I53-50A trimeric component (SARS-CoV-2)
# [2] = target: RBD-12GS-I53-50A trimeric component (SARS-CoV-2)
# [3] = target: Monomeric SARS-CoV-2 RBD (SARS-CoV-2) (UniProt P0DTC2)
# [4] = target: RBD-8GS-I53-50A trimeric component (SARS-CoV-2)
substance,measurement,setting,value
CR3022 Fab,Kd,[1],0.056 µM
same,koff,[1],0.01 s⁻¹
same,kon,[1],200000 M⁻¹ s⁻¹
same,Kd,[2],0.042 µM
same,koff,[2],0.009 s⁻¹
same,kon,[2],200000 M⁻¹ s⁻¹
same,Kd,[3],0.045 µM
same,koff,[3],0.009 s⁻¹
same,kon,[3],200000 M⁻¹ s⁻¹
same,Kd,[4],0.057 µM
same,koff,[4],0.01 s⁻¹
same,kon,[4],200000 M⁻¹ s⁻¹
